This is an account of results in the supplement of paper PMC5998384.

The test system of data set [1] is HeLa Kyoto. The data set can be described thus: solubility in G1/S (NP-40 vs SDS abundance) (log2 ratio); higher = more soluble. Particulars: cell cycle stage: G1/S.
Data set [2] has as its system HeLa Kyoto. The data set can be described thus: melting temperature (median over replicates), in situ; higher = more thermally stable.
For data set [3], the system named is HeLa Kyoto. In words: solubility change mitosis vs G1/S (difference of NP-40 vs SDS log2 ratios) (log2 ratio difference); higher = more soluble in mitosis.
Data set [4] relates to HeLa Kyoto. The data set can be described thus: thermal stability score vs G1/S (z-score of summed log2 fold changes over temperatures); higher = more thermally stable than in G1/S.
The mark [5] stands for this setting: cell cycle stage: early G1 (4.5 h after nocodazole release).
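For melting temperature (median over replicates), in situ in this document: HeLa Kyoto cells synchronized by double thymidine or nocodazole block, proteins quantified by TMT10plex mass spectrometry, three independent biological replicates.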
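For solubility change mitosis vs G1/S (difference of NP-40 vs SDS log2 ratios) in this document: synchronized HeLa Kyoto cells (double thymidine block for G1/S, nocodazole release for mitosis), protein amounts in NP-40 versus SDS lysates quantified by mass spectrometry, three biological replicates.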
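For solubility in G1/S (NP-40 vs SDS abundance) in this document: HeLa Kyoto cells arrested at G1/S by double thymidine block, proteins quantified by TMT10plex mass spectrometry in mild NP-40 versus SDS extracts, three biological replicates.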
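For thermal stability score vs G1/S (z-score of summed log2 fold changes over temperatures) in this document: synchronized HeLa Kyoto cells, proteins quantified by TMT10plex mass spectrometry, three biological replicates, mitosis taken 0.5 h after nocodazole release, G1/S directly after double thymidine block.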

Consider “MAELRVLVAVKRVIDYAVKIRVKPDRTGVVTDGVKHSMNPFCEIAVEEAVRLKEKKLVKEVIAVSCGPAQCQETIRTALAMGADRGIHVEVPPAEAERLGPLQVARVLAKLAEKEKVDLVLLGKQAIDDDCNQTGQMTAGFLDWPQGTFASQVTLEGDKLKVEREIDGGLETLRLKLPAVVTADLRLNEPRYATLPNIMKAKKKKIEVIKPGDLGVDLTSKLSVISVEDPPQRTAGVKVETTEDLVAKLKEIGRI [ETFB]”, for which, in data set [1], the “solubility in G1/S (log2)” value was determined as 0.362. Also, the melting temperature in data set [2] (cell cycle stage: G1/S) was 54 °C; in data set [2] (cell cycle stage: mitosis), 54.2 °C. The “solubility change mitosis (log2)” value in data set [3] was found to be 0.0272. The values for the thermal stability score in data set [4] (setting [5]) and in data set [4] (cell cycle stage: mitosis) were -1.74 and -0.806, respectively.

Regarding “MEIIRSNFKSNLHKVYQAIEEADFFAIDGEFSGISDGPSVSALTNGFDTPEERYQKLKKHSMDFLLFQFGLCTFKYDYTDSKYITKSFNFYVFPKPFNRSSPDVKFVCQSSSIDFLASQGFDFNKVFRNGIPYLNQEEERQLREQYDEKRSQANGAGALSYVSPNTSKCPVTIPEDQKKFIDQVVEKIEDLLQSEENKNLDLEPCTGFQRKLIYQTLSWKYPKGIHVETLETEKKERYIVISKVDEEERKRREQQKHAKEQEELNDAVGFSRVIHAIANSGKLVIGHNMLLDVMHTVHQFYCPLPADLSEFKEMTTCVFPRLLDTKLMASTQPFKDIINNTSLAELEKRLKETPFNPPKVESAEGFPSYDTASEQLHEAGYDAYITGLCFISMANYLGSFLSPPKIHVSARSKLIEPFFNKLFLMRVMDIPYLNLEGPDLQPKRDHVLHVTFPKEWKTSDLYQLFSAFGNIQISWIDDTSAFVSLSQPEQVKIAVNTSKYAESYRIQTYAEYMGRKQEEKQIKRKWTEDSWKEADSKRLNPQCIPYTLQNHYYRNNSFTAPSTVGKRNLSPSQEEAGLEDGVSGEISDTELEQTDSCAEPLSEGRKKAKKLKRMKKELSPAGSISKNSPATLFEVPDTW [PARN]”, in data set [1], the “solubility in G1/S (log2)” value is -0.144. Moreover, the values for the melting temperature in data set [2] (cell cycle stage: G1/S) and in data set [2] (cell cycle stage: mitosis) were 48.7 °C and 50.7 °C, respectively. In addition, the “solubility change mitosis (log2)” value in data set [3] is -0.0471. The thermal stability score turned out to be 1.32 in data set [4] (setting [5]) and 2.89 in data set [4] (cell cycle stage: mitosis).

With “MESEQLFHRGYYRNSYNSITSASSDEELLDGAGVIMDFQTSEDDNLLDGDTAVGTHYTMTNGGSINSSTHLLDLLDEPIPGVGTYDDFHTIDWVREKCKDRERHRRINSKKKESAWEMTKSLYDAWSGWLVVTLTGLASGALAGLIDIAADWMTDLKEGICLSALWYNHEQCCWGSNETTFEERDKCPQWKTWAELIIGQAEGPGSYIMNYIMYIFWALSFAFLAVSLVKVFAPYACGSGIPEIKTILSGFIIRGYLGKWTLMIKTITLVLAVASGLSLGKEGPLVHVACCCGNIFSYLFPKYSTNEAKKREVLSAASAAGVSVAFGAPIGGVLFSLEEVSYYFPLKTLWRSFFAALVAAFVLRSINPFGNSRLVLFYVEYHTPWYLFELFPFILLGVFGGLWGAFFIRANIAWCRRRKSTKFGKYPVLEVIIVAAITAVIAFPNPYTRLNTSELIKELFTDCGPLESSSLCDYRNDMNASKIVDDIPDRPAGIGVYSAIWQLCLALIFKIIMTVFTFGIKVPSGLFIPSMAIGAIAGRIVGIAVEQLAYYHHDWFIFKEWCEVGADCITPGLYAMVGAAACLGGVTRMTVSLVVIVFELTGGLEYIVPLMAAVMTSKWVGDAFGREGIYEAHIRLNGYPFLDAKEEFTHTTLAADVMRPRRNDPPLAVLTQDNMTVDDIENMINETSYNGFPVIMSKESQRLVGFALRRDLTIAIESARKKQEGIVGSSRVCFAQHTPSLPAESPRPLKLRSILDMSPFTVTDHTPMEIVVDIFRKLGLRQCLVTHNGRLLGIITKKDILRHMAQTANQDPASIMFN [CLCN3]”, in data set [1], the “solubility in G1/S (log2)” value was -0.354. Moreover, the melting temperature in data set [2] (cell cycle stage: G1/S) and in data set [2] (cell cycle stage: mitosis) was 54.9 °C throughout. Besides, in data set [3], the “solubility change mitosis (log2)” value was -0.0871. The thermal stability score is -0.456 in data set [4] (setting [5]) and -0.317 in data set [4] (cell cycle stage: mitosis).

Consider DICER1, for which the “solubility in G1/S (log2)” value in data set [1] is -0.101. Also, the melting temperature in data set [2] (cell cycle stage: G1/S) came out at 50.7 °C; in data set [2] (cell cycle stage: mitosis), 50.1 °C. In addition, the “solubility change mitosis (log2)” value in data set [3] is -0.07. For the same substance, the results for the thermal stability score in data set [4] (setting [5]) and in data set [4] (cell cycle stage: mitosis) were -0.0197 and 0.111, respectively.

Turning to THADA, the “solubility in G1/S (log2)” value in data set [1] is -0.395. The melting temperature turned out to be 51.6 °C in data set [2] (cell cycle stage: G1/S) and 50.2 °C in data set [2] (cell cycle stage: mitosis). In data set [3], the “solubility change mitosis (log2)” value was -0.159. The thermal stability score in data set [4] (setting [5]) is -0.0368; in data set [4] (cell cycle stage: mitosis) it was -1.12.

In the case of “MEADASVDMFSKVLEHQLLQTTKLVEEHLDSEIQKLDQMDEDELERLKEKRLQALRKAQQQKQEWLSKGHGEYREIPSERDFFQEVKESENVVCHFYRDSTFRCKILDRHLAILSKKHLETKFLKLNVEKAPFLCERLHIKVIPTLALLKDGKTQDYVVGFTDLGNTDDFTTETLEWRLGSSDILNYSGNLMEPPFQNQKKFGTNFTKLEKKTIRGKKYDSDSDDD [TXNDC9]”, the “solubility in G1/S (log2)” value in data set [1] was 0.273. The melting temperature in data set [2] (cell cycle stage: G1/S) amounted to 52.4 °C; in data set [2] (cell cycle stage: mitosis), 52.7 °C. Moreover, the “solubility change mitosis (log2)” value in data set [3] is 0.0132. Moreover, the values for the thermal stability score in data set [4] (setting [5]) and in data set [4] (cell cycle stage: mitosis) were 1 and 0.636, respectively.

For the substance “MAAAAPVAADDDERRRRPGAALEDSRSQEGANGEAESGELSRLRAELAGALAEMETMKAVAEVSESTKAEAVAAVQRQCQEEVASLQAILKDSISSYEAQITALKQERQQQQQDCEEKERELGRLKQLLSRAYPLDSLEKQMEKAHEDSEKLREIVLPMEKEIEELKAKLLRAEELIQEIQRRPRHAPSLHGSTELLPLSRDPSPPLEPLEELSGDGGPAAEAFAHNCDDSASISSFSLGGGVGSSSSLPQSRQGLSPEQEETASLVSTGTLVPEGIYLPPPGYQLVPDTQWEQLQTEGRQLQKDLESVSRERDELQEGLRRSNEDCAKQMQVLLAQVQNSEQLLRTLQGTVSQAQERVQLQMAELVTTHKCLHHEVKRLNEENQGLRAEQLPSSAPQGSQQEQGEEESLPSSVPELQQLLCCTRQEARARLQAQEHGAERLRIEIVTLREALEEETVARASLEGQLRVQREETEVLEASLCSLRTEMERVQQEQSKAQLPDLLSEQRAKVLRLQAELETSEQVQRDFVRLSQALQVRLERIRQAETLEQVRSIMDEAPLTDVRDIKDT [RABEP2]”, the “solubility in G1/S (log2)” value in data set [1] stood at 0.504. In addition, the melting temperature stood at 49 °C in data set [2] (cell cycle stage: G1/S) and 50.6 °C in data set [2] (cell cycle stage: mitosis). Moreover, the “solubility change mitosis (log2)” value in data set [3] worked out at 0.304. Besides, the thermal stability score is -0.553 in data set [4] (setting [5]) and 0.297 in data set [4] (cell cycle stage: mitosis).
